Experimental data taken from patent publication US20120045819A1.
Positions of bridges follow the written chain, without caps; N, C: chain ends. No end group written: not given here. *: point of attachment. NHNH2 = NN*

Key:
[1] = target: REFACTO® (recombinant factor VIII-like polypeptide consisting of amino acids 1-743 and 1638 through 2332 of human factor VIII) (human) (UniProt P00451); test: phage ELISA on the factor VIII target (REFACTO), anti-M13-HRP
[2] = target: REFACTO® (recombinant factor VIII-like polypeptide consisting of amino acids 1-743 and 1638 through 2332 of human factor VIII) (human) (UniProt P00451); test: phage ELISA, ratio with target to without target
[3] = target: REFACTO® (recombinant factor VIII-like polypeptide consisting of amino acids 1-743 and 1638 through 2332 of human factor VIII) (human) (UniProt P00451); test: affinity column, peptide on Toyopearl Formyl 650-M; fraction quantified by RP-HPLC
[4] = target: REFACTO® (recombinant factor VIII-like polypeptide consisting of amino acids 1-743 and 1638 through 2332 of human factor VIII) (human) (UniProt P00451); test: affinity column, peptide on Toyopearl Formyl 650-M; fraction quantified by factor VIII activity assay
[5] = target: REFACTO® (recombinant factor VIII-like polypeptide consisting of amino acids 1-743 and 1638 through 2332 of human factor VIII) (human) (UniProt P00451); test: batch binding to peptide beads; fractions by sandwich ELISA; % of input
[6] = target: REFACTO® (recombinant factor VIII-like polypeptide consisting of amino acids 1-743 and 1638 through 2332 of human factor VIII) (human) (UniProt P00451); test: batch binding to peptide beads; fractions by sandwich ELISA; % of total recovered

REFACTO® (recombinant factor VIII-like polypeptide consisting of amino acids 1-743 and 1638 through 2332 of human factor VIII) (human), sequence (P00451 20-762, chain 1 of 2): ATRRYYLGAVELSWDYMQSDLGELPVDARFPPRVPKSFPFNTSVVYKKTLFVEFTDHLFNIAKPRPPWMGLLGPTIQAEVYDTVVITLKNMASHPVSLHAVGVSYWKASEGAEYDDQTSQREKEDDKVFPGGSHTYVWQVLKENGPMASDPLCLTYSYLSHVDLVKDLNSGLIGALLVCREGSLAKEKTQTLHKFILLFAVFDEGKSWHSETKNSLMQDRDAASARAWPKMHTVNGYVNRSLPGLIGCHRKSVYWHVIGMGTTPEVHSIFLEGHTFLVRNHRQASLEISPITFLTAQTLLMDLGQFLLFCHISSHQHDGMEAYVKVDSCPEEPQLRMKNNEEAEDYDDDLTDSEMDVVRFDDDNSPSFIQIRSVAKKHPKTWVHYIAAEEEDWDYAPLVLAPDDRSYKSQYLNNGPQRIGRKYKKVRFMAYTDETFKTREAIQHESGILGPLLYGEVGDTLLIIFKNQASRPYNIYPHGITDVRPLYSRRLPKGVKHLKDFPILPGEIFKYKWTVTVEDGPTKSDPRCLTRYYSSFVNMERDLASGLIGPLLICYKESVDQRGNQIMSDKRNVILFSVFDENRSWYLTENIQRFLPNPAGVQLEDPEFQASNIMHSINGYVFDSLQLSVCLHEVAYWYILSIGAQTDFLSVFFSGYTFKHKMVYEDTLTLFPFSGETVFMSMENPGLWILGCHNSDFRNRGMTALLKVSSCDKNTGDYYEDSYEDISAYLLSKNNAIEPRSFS
REFACTO® (recombinant factor VIII-like polypeptide consisting of amino acids 1-743 and 1638 through 2332 of human factor VIII) (human), sequence (P00451 1657-2351, chain 2 of 2): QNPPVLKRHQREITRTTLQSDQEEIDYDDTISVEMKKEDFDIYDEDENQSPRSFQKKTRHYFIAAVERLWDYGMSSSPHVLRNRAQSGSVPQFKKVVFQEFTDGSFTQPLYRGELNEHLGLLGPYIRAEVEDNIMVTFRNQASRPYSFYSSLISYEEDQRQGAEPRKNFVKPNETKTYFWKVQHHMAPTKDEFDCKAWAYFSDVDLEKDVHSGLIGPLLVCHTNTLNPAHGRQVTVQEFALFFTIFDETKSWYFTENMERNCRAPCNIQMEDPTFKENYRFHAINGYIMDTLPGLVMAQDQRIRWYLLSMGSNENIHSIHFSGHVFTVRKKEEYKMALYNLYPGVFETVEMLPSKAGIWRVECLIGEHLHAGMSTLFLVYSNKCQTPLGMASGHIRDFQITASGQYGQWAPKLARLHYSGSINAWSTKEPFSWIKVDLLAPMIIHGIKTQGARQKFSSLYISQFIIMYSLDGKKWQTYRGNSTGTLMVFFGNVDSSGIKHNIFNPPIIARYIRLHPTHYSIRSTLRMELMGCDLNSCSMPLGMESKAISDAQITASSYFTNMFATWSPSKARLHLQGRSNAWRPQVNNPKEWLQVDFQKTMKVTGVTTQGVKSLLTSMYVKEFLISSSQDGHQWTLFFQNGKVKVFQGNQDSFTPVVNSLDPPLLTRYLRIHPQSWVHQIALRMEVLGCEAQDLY

B1: TN9 phage isolate 03 (SEQ ID NO: 26) (peptide)
peptide: FCWVFNFSHCS
In the case of B1, the ELISA signal [1] is reported as 1.1 OD630 and the R (ELISA score with target / ELISA score without target) [2] is reported as 24.

B2: TN9 phage isolate 01 (SEQ ID NO: 31) (peptide)
peptide: FCHVFNFVHCS
B2 was tested, and the ELISA signal [1] was 0.5 OD630 and the R (ELISA score with target / ELISA score without target) [2] was 8.

B3: TN8 phage isolate 04 (SEQ ID NO: 12) (peptide)
peptide: HPCGSWLHPCAA
B3 gave an ELISA signal [1] of 0.3 OD630 and a R (ELISA score with target / ELISA score without target) [2] of 6.

B4: CS-456 (…-NHNH2) (peptide)
peptide: AEGTGDFGCSWLFPCPFDPGPEGGGS-NHNH2
modifications: disulfide 9-15
Work on B4 yielded a % recovery in Flow [3] of 3.4%, a % recovery in elution A [3] of 44.8% and a % recovery in elution B [3] of 0%. For the same binder, the % recovery in pH2 [3] was 0%, the % recovery in Flow [4] was 4.8% and the % recovery in elution A [4] was 43%. For the same binder, the % of input recovered in Eluate [5] was 24%, the % of input recovered in Unbound [5] was 47% and the % of input recovered in Wash [5] was 20%.

B5: TN8 phage isolate 12 (SEQ ID NO: 17) (peptide)
peptide: HLCFAWFRPCDA
In the case of B5, the ELISA signal [1] is reported as 0.4 OD630 and the R (ELISA score with target / ELISA score without target) [2] is reported as 8.

B6: TN9 phage isolate 02 (SEQ ID NO: 27) (peptide)
peptide: FCWVFPFNHCD
In the case of B6, the ELISA signal [1] is reported as 0.4 OD630 and the R (ELISA score with target / ELISA score without target) [2] is reported as 8.

B7: TN9/1 phage isolate … (SEQ ID NO: 77) (peptide)
peptide: FCWVFQFRHCH
In the case of B7, the R (ELISA score with target / ELISA score without target) [2] is reported as 8.

B8: CS-459 (…-NHNH2) (peptide)
peptide: AEGTGDFCWVFPFQHCADPGPEGGGS-NHNH2
modifications: disulfide 8-16 (inferred)
B8 was tested, and the % recovery in Flow [3] was 1.6%, the % recovery in elution A [3] was 42.1% and the % recovery in elution B [3] was 0%. The % recovery in pH2 [3] was 0%, the % recovery in Flow [4] was 6.4% and the % recovery in elution A [4] was 31.2%.

B9: TN9 phage isolate 06 (D06-TN9) (peptide)
peptide: FCWVFPFHHCF
B9 gave an ELISA signal [1] of 0.3 OD630 and a R (ELISA score with target / ELISA score without target) [2] of 6.

B10: TN9/1 phage isolate … (SEQ ID NO: 75) (peptide)
peptide: FCWVFNWVHCD
Work on B10 yielded a R (ELISA score with target / ELISA score without target) [2] of 14.

B11: TN9 phage isolates 04 (B04-TN9) and 01 displaying Phe-Cys-Trp-Val-Phe-Ala-Phe-Asp-His-Cys-His (peptide)
peptide: FCWVFAFDHCH
With B11 the R (ELISA score with target / ELISA score without target) [2] was 24.

B12: TN7 phage isolate D04 (peptide)
peptide: RLCSWISPCSA
B12 gave an ELISA signal [1] of 0.3 OD630 and a R (ELISA score with target / ELISA score without target) [2] of 6.

B13: TN8 phage isolate 02 (E02-TN8, SEQ ID NO: 16) (peptide)
peptide: HLCGAWFRPCDA
Binder B13 has an ELISA signal [1] of 0.4 OD630 and a R (ELISA score with target / ELISA score without target) [2] of 6.

B14: TN9 phage isolate 02 (SEQ ID NO: 23) (peptide)
peptide: FCWVHPFAHCL
Work on B14 yielded an ELISA signal [1] of 0.2 OD630.

B15: TN7 phage isolate C5/G10 (peptide)
peptide: RLCSWVSPCSA
Binder B15 has an ELISA signal [1] of 0.5 OD630 and a R (ELISA score with target / ELISA score without target) [2] of 10.

B16: TN7 phage isolate A06 (peptide)
peptide: HSCGSWLFPCFA
Binder B16 has an ELISA signal [1] of 0.5 OD630 and a R (ELISA score with target / ELISA score without target) [2] of 10.

B17: TN7 phage isolate A08 (peptide)
peptide: FGCSWLFPCPF
Work on B17 yielded an ELISA signal [1] of 0.4 OD630 and a R (ELISA score with target / ELISA score without target) [2] of 8.

B18: TN7 phage isolate A09 (peptide)
peptide: FHCIGVWFCLH
For B18, the ELISA signal [1] was 0.1 OD630.

B19: TN8 phage isolate 02 (SEQ ID NO: 13) (peptide)
peptide: HPCGSWFNPCAH
B19 showed an ELISA signal [1] of 0.3 OD630 and a R (ELISA score with target / ELISA score without target) [2] of 8.

B20: TN9 phage isolate 12 (SEQ ID NO: 28) (peptide)
peptide: FCWVFPFNHCS
B20 gave an ELISA signal [1] of 1 OD630 and a R (ELISA score with target / ELISA score without target) [2] of 18.

B21: TN8 phage isolate 07 (SEQ ID NO: 15) (peptide)
peptide: HACGSWFRPCHA
With B21 the ELISA signal [1] was 0.4 OD630 and the R (ELISA score with target / ELISA score without target) [2] was 6.

B22: CS-458 (…-NHNH2) (peptide)
peptide: AEGTGDFCWVFAFDHCHDPGPEGGGS-NHNH2
modifications: disulfide 8-16
For B22, the % recovery in Flow [3] was 1.8%, the % recovery in elution A [3] was 54.3% and the % recovery in elution B [3] was 0%. The % recovery in pH2 [3] was 0%, the % recovery in Flow [4] was 1.4% and the % recovery in elution A [4] was 55.6%. It also gave a % of input recovered in Eluate [5] of 47%, a % of input recovered in Unbound [5] of 20% and a % of input recovered in Wash [5] of 10%. The % of total recovered in Eluate [6] was 27%, the % of total recovered in Unbound [6] was 59% and the % of total recovered in Wash [6] was 14%.

B23: CS-455 (…-NHNH2) (peptide)
peptide: AEGTGDFHCIGVWFCLHDPGPEGGGS-NHNH2
modifications: disulfide 9-15 (inferred)
In the case of B23, the % recovery in Flow [3] is reported as 65.8%, the % recovery in elution A [3] is reported as 1.4% and the % recovery in elution B [3] is reported as 0%. It also gave a % recovery in pH2 [3] of 0%, a % recovery in Flow [4] of 61.6% and a % recovery in elution A [4] of 1.3%.

B24: TN9 phage isolate 01 (SEQ ID NO: 24) (peptide)
peptide: FCHVFHFSHCD
B24 was tested, and the ELISA signal [1] was 0.2 OD630.

B25: CS-453 (…-NHNH2) (peptide)
peptide: AEGTGDHPCGSWLRPCLHDPGPEGGGS-NHNH2
modifications: disulfide 9-16 (inferred)
B25 showed a % recovery in Flow [3] of 0%, a % recovery in elution A [3] of 43.2% and a % recovery in elution B [3] of 0%. It also gave a % recovery in pH2 [3] of 0%, a % recovery in Flow [4] of 0% and a % recovery in elution A [4] of 26.4%.

B26: TN9 phage isolate 11 (SEQ ID NO: 32) (peptide)
peptide: FCHVFPFLHCD
With B26 the ELISA signal [1] was 0.2 OD630.

B27: TN8 phage isolate 10 (C10-TN8) (peptide)
peptide: HPCGSWLRPCLH
B27 gave an ELISA signal [1] of 1 OD630 and a R (ELISA score with target / ELISA score without target) [2] of 16.

B28: CS-454 (…-NHNH2) (peptide)
peptide: AEGTGDHLCGAWFRPCDADPGPEGGGS-NHNH2
modifications: disulfide 9-16
B28 gave a % recovery in Flow [3] of 2.5%, a % recovery in elution A [3] of 45.1% and a % recovery in elution B [3] of 0%. The % recovery in pH2 [3] was 0%, the % recovery in Flow [4] was 2.2% and the % recovery in elution A [4] was 42.4%. It also gave a % of input recovered in Eluate [5] of 49%, a % of input recovered in Unbound [5] of 24% and a % of input recovered in Wash [5] of 12%.

B29: TN8 phage isolate 08 (SEQ ID NO: 20) (peptide)
peptide: HPCGAWLRPCYN
In the case of B29, the ELISA signal [1] is reported as 1 OD630 and the R (ELISA score with target / ELISA score without target) [2] is reported as 20.

B30: TN7 phage isolate D03 (peptide)
peptide: PHCNWLFPCSL
With B30 the ELISA signal [1] was 0.2 OD630.

B31: CS-460 (…-NHNH2) (peptide)
peptide: AEGTGDFCWVFPFHHCFDPGPEGGGS-NHNH2
modifications: disulfide 8-16 (inferred)
Work on B31 yielded a % recovery in Flow [3] of 24.6%, a % recovery in elution A [3] of 28.8% and a % recovery in elution B [3] of 0%. For the same binder, the % recovery in pH2 [3] was 0%, the % recovery in Flow [4] was 28.4% and the % recovery in elution A [4] was 0%.

B32: TN8 phage isolate 11/G10 (A11/G10-TN8) (peptide)
peptide: HRCGSWLHPCLA
In the case of B32, the ELISA signal [1] is reported as 0.3 OD630 and the R (ELISA score with target / ELISA score without target) [2] is reported as 6.

B33: TN8 phage isolate 05 (SEQ ID NO: 11) (peptide)
peptide: RGCGSWLRPCLD
With B33 the ELISA signal [1] was 0.2 OD630.

B34: TN8 phage isolate 02 (SEQ ID NO: 14) (peptide)
peptide: HPCGSWFRPCFH
B34 was tested, and the ELISA signal [1] was 0.7 OD630 and the R (ELISA score with target / ELISA score without target) [2] was 16.

B35: TN8 phage isolate 01 (SEQ ID NO: 19) (peptide)
peptide: HPCGAWFNPCPR
For B35, the ELISA signal [1] was 0.2 OD630.

B36: TN8 phage isolate 01 (SEQ ID NO: 18) (peptide)
peptide: HGCGAWFRPCHA
B36 was tested, and the ELISA signal [1] was 0.2 OD630.

B37: TN9 phage isolate 09 (E09-TN9) (peptide)
peptide: FCWVFPFQHCA
With B37 the ELISA signal [1] was 1.1 OD630 and the R (ELISA score with target / ELISA score without target) [2] was 24.
